Data as given in patent publication US20030224463A1 (Dana-Farber, published 2003).

Target: T1, human MLH1 protein (hMLH1) (human, UniProt P40692 1-756, limits assumed)
T1 construct: Translated in vitro for the MBP-hPMS1 column assay
T1 sequence: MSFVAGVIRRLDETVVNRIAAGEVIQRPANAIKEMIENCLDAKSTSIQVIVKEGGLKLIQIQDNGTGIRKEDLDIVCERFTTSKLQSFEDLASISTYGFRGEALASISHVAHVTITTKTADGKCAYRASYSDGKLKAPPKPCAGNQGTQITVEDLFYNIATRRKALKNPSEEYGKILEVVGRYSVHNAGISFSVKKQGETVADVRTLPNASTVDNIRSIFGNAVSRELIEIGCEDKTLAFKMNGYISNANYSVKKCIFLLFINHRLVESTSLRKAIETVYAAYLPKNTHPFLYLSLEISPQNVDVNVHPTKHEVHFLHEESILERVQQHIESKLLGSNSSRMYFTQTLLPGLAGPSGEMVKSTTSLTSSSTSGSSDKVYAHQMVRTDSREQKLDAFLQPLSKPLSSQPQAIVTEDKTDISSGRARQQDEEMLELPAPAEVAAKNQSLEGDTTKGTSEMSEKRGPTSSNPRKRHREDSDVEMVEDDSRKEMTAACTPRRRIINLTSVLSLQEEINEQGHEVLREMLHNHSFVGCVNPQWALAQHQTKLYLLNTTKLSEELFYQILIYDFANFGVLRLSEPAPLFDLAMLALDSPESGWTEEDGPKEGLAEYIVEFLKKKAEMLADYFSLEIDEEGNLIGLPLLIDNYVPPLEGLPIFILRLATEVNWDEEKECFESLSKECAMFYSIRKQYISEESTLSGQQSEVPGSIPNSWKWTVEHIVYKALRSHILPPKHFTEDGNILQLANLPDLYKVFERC
Assay: yeast two-hybrid system

binding result: binds
B1: human PMS1 protein (hPMS1) (other)
chain: MERAESSSTEPAKAIKPIDRKSVHQICSGQVVLSLSTAVKELVENSLDAGATNIDLKLKDYGVDLIEVSDNGCGVEEENFEGLTLKHHTSKIQEFADLTQVETFGFRGEALSSLCALSDVTISTCHASAKVGTRLMFDHNGKIIQKTPYPRPRGTTVSVQQLFSTLPVRHKEFQRNIKKEYAKMVQVLHAYCIISAGIRVSCTNQLGQGKRQPVVCIGGSPSIKENIGSVFGQKQLQSLIPFVQLPPSDSVCEEYGLSCSDALHNLFYISGFISQCTHGVGRSSTDRQFFFINRRPCDPAKVCRLVNEVYHMYNRHQYPFVVLNISVDSECVDINVTPDKRQILLQEEKLLLAVLKTSLIGMFDSDVNKLNVSQQPLLDVEGNLIKMHAADLEKPMVEHQDQSPSLRIGEEKKDVSISRLREAFSLRHTTENKPHSPKTPEPRRSPLGQKRGMLSSSTSGAISDKGVLRSQKEAVSSSHGPSDPTDRAEVEKDSGHGSTSVDSEGFSIPDTGSHCSSEYAASSPGDRGSQEHVDSQEKAPETDDSFSDVDCHSNQEDTGCKFRVLPQPINLATPNTKRFKKEEILSSSDICQKLVNTQDMSASQVDVAVKINKKVVPLDFSMSSLAKRIKQLHHEAQQSEGEQNYRKFRAKICPGENQAAEDELRKEISKTMFAEMEIIGQFNLGFIITKLNEDIFIVDQHATDEKYNFEMLQQHTVLQGQRLIAPQTLNLTAVNEAVLIENLEIFRKNGFDFVIDENAPVTERAKLISLPTSKNWTFGPQDVDELIFMLSDSPGVMCRPSRVKQMFASRACRKSVMIGTALNTSEMKKLITHMGEMGHPWNCPHGRPTMRHIANLGVISQN
notes: Synthesized in vitro for the MBP column assay
